Like-named read-outs stand apart in the source and are kept apart here. Blank lines part the entries; values can stand above or below the binder they belong to.
Key:
[1] = target: T1, human TIGIT expressed on cells (human, UniProt Q495A1 25-244); assay: cell-based or functional assay
T1 sequence: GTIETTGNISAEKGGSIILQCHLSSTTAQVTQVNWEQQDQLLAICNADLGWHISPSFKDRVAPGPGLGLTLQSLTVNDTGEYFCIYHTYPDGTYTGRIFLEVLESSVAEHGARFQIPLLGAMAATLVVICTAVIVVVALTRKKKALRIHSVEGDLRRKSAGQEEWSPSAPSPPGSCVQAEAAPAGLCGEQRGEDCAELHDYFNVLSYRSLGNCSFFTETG

[2] = target: T1, human TIGIT expressed on cells; assay: cell-based ELISA, panel 'Binding to human TIGIT-CHO-K1 cells'
[3] = target: T2, rhesus TIGIT expressed on CHO-K1 cells (rhesus monkey); assay: cell-based ELISA, panel 'Binding to rhesus TIGIT-CHOK1 cells'
T2 construct: also called rhesus TIGIT-CHOK1 cells; Cyno/Rhesus TIGIT

human TIGIT-Fc protein [4] = target: T3, human TIGIT-Fc protein (human, UniProt Q495A1 25-141); assay: SPR, Biacore T200, antibody captured on anti-rat IgG Fc, TIGIT-Fc in solution, 1:1 Langmuir fit
T3 construct: not shown: Fc part
T3 sequence: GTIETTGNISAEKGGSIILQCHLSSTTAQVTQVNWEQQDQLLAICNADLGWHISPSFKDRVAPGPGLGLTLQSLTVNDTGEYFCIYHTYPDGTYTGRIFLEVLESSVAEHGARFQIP
Protocol: (§1) The kinetic binding activity of anti-human TIGIT antibodies 14A6 and 31C6 (made as described in Example 1) and of commercial antibody MBSA43 was measured by surface plasmon resonance using a Biacore T200 system (Biacore, GE Healthcare, Piscataway, N.J.). Approximately 5000 RU of Anti-mouse IgG, GE Healthcare Catalog Number BR-1008-38, or approximately 13,000 RU of Goat Anti-Rat IgG Fc gamma, Fragment Specific, Jackson ImmunoResearch Catalog Number 112-006-071, was immobilized via amine coupling chemistry onto a Series S CM5 sensor chip, catalog number BR-1005-30. Mouse anti-human TIGIT clones, 31C6 and MBSA43, were each injected over the immobilized anti-mouse surfaces at 1 ug/mL for a capture level of 40 RU. Rat anti-human TIGIT clone 14A6 was injected over the immobilized anti-rat surfaces at 1 ug/mL for a capture level of 40 RU. HBS-EP+ buffer (BR-1006-69) was used as the running buffer with a flow rate of 30 μL/min. Varying concentrations of human TIGIT-His protein or TIGIT-Fc protein, ranging from 0.29 nM to 40 nM, at a flow rate of 45 μL/min were injected over the antibody surfaces. Following each Mouse anti-human TIGIT injection cycle for clones 31C6 and MBSA43, the Series S CM5 chip surface was regenerated using one three-minute injection of 10 mM Glycine pH 1.7 at a flow rate of […]. […]

[5] = target: T4, Human TIGIT-His (extracellular domain of hTIGIT with a histidine tag) (human, UniProt Q495A1 25-141); assay: SPR, Biacore T200, antibody captured on anti-rat IgG Fc, TIGIT-His in solution, 1:1 Langmuir fit
T4 construct: also called hTIGIT-His; hTIGIT-HIS
T4 sequence: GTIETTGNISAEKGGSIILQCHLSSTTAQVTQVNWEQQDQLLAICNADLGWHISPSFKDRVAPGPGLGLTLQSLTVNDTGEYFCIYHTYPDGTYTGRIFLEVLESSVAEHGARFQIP
Protocol: as §1

[6] = target: T1, human TIGIT expressed on cells; assay: cell-based ELISA blocking assay: binding of hCD155-hFc to human TIGIT-CHO-K1 cells, antibody titrated
[7] = target: T1, human TIGIT expressed on cells; assay: cell-based or functional assay; remark: listed apart in the source
[8] = target: T1, human TIGIT expressed on cells; assay: cell-based ELISA, panel 'Binding to hTIGIT-CHO'
[9] = target: T2, rhesus TIGIT expressed on CHO-K1 cells; assay: cell-based ELISA, panel 'Binding to rhesus TIGIT-CHO'
human TIGIT-Fc protein [10] = target: T3, human TIGIT-Fc protein; assay: SPR, Biacore T200, antibody captured on anti-mouse IgG, TIGIT-Fc in solution, 1:1 Langmuir fit
Protocol: as §1

[11] = target: T4, Human TIGIT-His (extracellular domain …); assay: SPR, Biacore T200, antibody captured on anti-mouse IgG, TIGIT-His in solution, 1:1 Langmuir fit
Protocol: as §1

[12] = target: T1, human TIGIT expressed on cells; assay: cell-based ELISA blocking assay: binding of hCD155-hFc to human TIGIT-CHO-K1 cells, antibody titrated; remark: listed apart in the source
[13] = target: T1, human TIGIT expressed on cells; assay: cell-based ELISA, panel 'Binding to human TIGIT-CHO K1 cells'
[14] = target: T2, rhesus TIGIT expressed on CHO-K1 cells; assay: cell-based ELISA, panel 'Binding to rhesus TIGIT CHO K1 cells'

T2 sequence (chain, as listed by the source): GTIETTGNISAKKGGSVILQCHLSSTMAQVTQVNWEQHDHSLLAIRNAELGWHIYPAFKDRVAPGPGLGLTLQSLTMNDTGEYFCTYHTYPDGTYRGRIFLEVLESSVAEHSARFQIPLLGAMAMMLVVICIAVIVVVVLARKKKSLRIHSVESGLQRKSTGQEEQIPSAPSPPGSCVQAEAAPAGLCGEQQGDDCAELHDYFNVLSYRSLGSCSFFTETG

B1: 14A6 (rat anti-human TIGIT antibody, clone LB155.14A6.G2.A8) (antibody, V domains shown)
VH: EVQLQESGPGLVKPSQSLSLTCSVTGSSIASDYWGWIRKFPGNKMEWMGFITYSGSTSYNPSLKSRISITRDTSKNQFFLQLHSVTTDDTATYSCARMPSFITLASLSTWEGYFDFWGPGTMVTVSS
VL: DIQMTQSPSLLSASVGDRVTLNCKASQSIHKNLAWYQQKLGEAPKFLIYYANSLQTGIPSRFSGSGSGTDFTLTISGLQPEDVATYFCQQYYSGWTFGGGTKVELK
notes: also called 14A6 (rIgG2a/K)
EC50 of IL-2 rescue in hTIGIT-Jurkat / THP-1 co-culture [1]: 0.19 µg/mL
IL-2 rescue relative to MBSA43 (10 µg/ml) [1]: 82%
increase in IFNγ production, BC4-clone 49 T cells with JY-hCD155 cells [1]: ~2 fold
EC50 (read off the curve) [2]: ~0.1 µg/mL
EC50 (read off the curve) [3]: ~0.2 µg/mL
Kd (human TIGIT-Fc protein [4]): 3.12 pM
Kd [5]: 3.09 pM
IC50 (read off the curve) [6]: ~0.1 µg/mL

B2: MEB125.31C6.A1.205 VH4/VL1 (antibody, human IgG1, V domains shown)
VH: EVQLVQSGAEVKKPGASVKVSCKASGYTFSSYVMHWVRQAPGQGLEWIGYIDPYNDGAKYAQKFQGRVTLTSDKSTSTVYMELSSLRSEDTAVYYCARGGPYGWYFDVWGQGTTVTVSS
VL: DIQMTQSPSSLSASVGDRVTITCRASEHIYSYLSWYQQKPGKAPKLLIYNAKTLAEGVPSRFSGSGSGTDFTLTISSLQPEDFATYYCQHHFGSPLTFGQGTRLEIK
EC50 of IL-2 rescue in hTIGIT-Jurkat / hCD155-JY co-culture [7]: 0.62 µg/mL

B3: MEB125.31C6.A1.205 VH5/VL3 (antibody, human IgG1, V domains shown)
VH: EVQLVQSGAEVKKPGSSVKVSCKASGYTFSSYVMHWVRQAPGQGLEWIGYIDPYNDGAKYAQKFQGRVTLTSDKSTSTAYMELSSLRSEDTAVYYCARGGPYGWYFDVWGQGTTVTVSS
VL: DIQMTQSPSSLSASVGDRVTITCRASEHIYSYLSWYQQKPGKVPKLLIYNAKTLAEGVPSRFSGSGSGTDFTLTISSLQPEDVATYYCQHHFGSPLTFGQGTRLEIK
EC50 of IL-2 rescue in hTIGIT-Jurkat / hCD155-JY co-culture [7]: 1.2 µg/mL

B5: 31C6 (mouse anti-human TIGIT antibody, clone MEB125.31C6.A1.205) (antibody, mouse IgG1, V domains shown)
VH: EVQLQQSGPELVKPGSSVKMSCKASGYTFSSYVMHWVKQKPGQGLEWIGYIDPYNDGAKYNEKFKGKATLTSDKSSSTAYMELSSLTSEDSAVYYCARGGPYGWYFDVWGAGTTVTVSS
VL: DIQMTQSPASLSASVGETVTITCRASEHIYSYLSWYQQKQGKSPQLLVYNAKTLAEGVPSRFSGSGSGTQFSLKINSLQPEDFGTYYCQHHFGSPLTFGAGTTLELK
notes: Mouse IgG1/kappa; also called 31C6 (mIgG1/K); MEB125.31C6.A1.205 mIgG1
EC50 of IL-2 rescue in hTIGIT-Jurkat / THP-1 co-culture [1]: 0.14 µg/mL
EC50 of IL-2 rescue in hTIGIT-Jurkat / hCD155-JY co-culture [1]: 0.73 µg/mL
IL-2 rescue relative to MBSA43 (10 µg/ml) [1]: 118%
increase in IFNγ production, BC4-clone 49 T cells with JY-hCD155 cells [1]: ~2 fold
EC50 (read off the curve) [8]: ~0.03 µg/mL
EC50 (read off the curve) [9]: ~0.06 µg/mL
Kd (human TIGIT-Fc protein [10]): 10.9 pM
Kd [11]: 34.4 pM
IC50 (read off the curve) [12]: ~0.9 µg/mL

B7: 28H5 (mouse anti-human TIGIT antibody, clone TC167.28H5.H5) (antibody, mouse IgG1, V domains shown)
VH: DVQLQESGPGLVKPSQSLSLTCTVTGYSITSDYAWNWIRQFPGNKLEWMGYISNSGSASYNPSLKSRISITRDTSKNQFFLQLNSVTTEDTATYYCATLIYYDYGGAMNFWGQGTSVTVSS
VL: DIVMTQSHKFMSTSVGDRVSITCKASQGVSTTVAWYQQKPGQSPKLLIYSASYRYTGVPDRFTGSGSGTDFTFTISSVQSEDLAVYYCQHYYSTPWTFGGGTKLEIK
notes: Mouse IgG1/kappa
EC50 of IL-2 rescue in hTIGIT-Jurkat / THP-1 co-culture [1]: 0.24 µg/mL
increase in IFNγ production, BC4-clone 49 T cells with JY-hCD155 cells [1]: ~2 fold
EC50 (read off the curve) [13]: ~100 µg/mL
EC50 (read off the curve) [14]: ~0.05 µg/mL

Now from value to binder:

EC50 of IL-2 rescue in hTIGIT-Jurkat / hCD155-JY co-culture [7]: 1.2 µg/mL
B4: MEB125.31C6.A1.205 VH5/VL4 (antibody, human IgG1, V domains shown)
VH: EVQLVQSGAEVKKPGSSVKVSCKASGYTFSSYVMHWVRQAPGQGLEWIGYIDPYNDGAKYAQKFQGRVTLTSDKSTSTAYMELSSLRSEDTAVYYCARGGPYGWYFDVWGQGTTVTVSS
VL: DIQMTQSPSSLSASVGDRVTITCRASEHIYSYLSWYQQKPGKVPKLLIYNAKTLAEGVPSRFSGSGSGTQFTLTISSLQPEDVATYYCQHHFGSPLTFGQGTRLEIK

EC50 of IL-2 rescue in hTIGIT-Jurkat / hCD155-JY co-culture [1]: 0.91 µg/mL
B6: Mouse human chimera MEB125.31C6.A1.205 IgG1 (antibody, V domains shown)
VH: EVQLQQSGPELVKPGSSVKMSCKASGYTFSSYVMHWVKQKPGQGLEWIGYIDPYNDGAKYNEKFKGKATLTSDKSSSTAYMELSSLTSEDSAVYYCARGGPYGWYFDVWGAGTTVTVSS
VL: DIQMTQSPASLSASVGETVTITCRASEHIYSYLSWYQQKQGKSPQLLVYNAKTLAEGVPSRFSGSGSGTQFSLKINSLQPEDFGTYYCQHHFGSPLTFGAGTTLELK

Source: patent US20200270346A1 (Merck Sharp & Dohme, published 2020)
